The test system of series [1] is insulin receptor substrate-1 (IRS-1) peptide Y^608.
Series [2] relates to human epithelial kidney (HEK) cells. Kind of series: Insulin-dependent glucose uptake in HEK cells. Format: cell-based. The note with it: myristoylated peptide 2 h, then insulin 100 nM 10 min. On the procedure: (§1) FIGS. 15A-B show the effect of hBVR-based peptides on IGF-dependent glucose uptake in rat smooth muscle cells (PAC1) (FIG. 15A) and insulin-dependent glucose uptake in human epithelial kidney (HEK) cells (FIG. 15B). Cells were treated as described for FIG. 14 and glucose uptake was measured as described infra.
(§2) The therapeutic utility of various BVR peptides with regard to their ability to modify insulin and insulin growth factor (IGF) mediated cellular glucose uptake was evaluated. Human embryonic kidney cells (HEK293) or rat aortic smooth muscle cells (PAC) were starved in low glucose serum-depleted DMEM for twenty hours prior to transfer to PBS containing CaCl2, MgCl2. After two hours, myristoylated peptides were added to the medium for two additional hours. Thereafter, IGF-1 (50 ng/ml) or insulin (100 nM) was added (10 min) and glucose uptake was tested for three minutes in the presence of methyl-D-glucose,3-O-[methyl-3H]. Subsequently, cells were washed three times in cold PBS and solubilized in NaOH (0.05 mM). Aliquots were measured for radioactivity. Non-specific binding or diffusion was tested by addition of 300 mM glucose to the cells. This value was deducted from the total counts (on the average <20%) and results were normalized for protein concentration.

Series [3] has as its system rat smooth muscle cells (PAC1). Kind of series: Glucose uptake in PAC1 cells (IGF-dependent). It counts as cell-based. The note with it: myristoylated peptide 2 h, then IGF-1 50 ng/ml 10 min. On the procedure:
Glucose uptake was tested as described infra. Cells were starved in low glucose serum-depleted DMEM for 20 hours prior to transfer to PBS containing CaCl2, MgCl2. After 2 hrs myristoylated peptides were added to the medium for 2 hours. Thereafter, IGF-1 (50 ng/ml) or insulin (100 nM) was added (10 min) and glucose uptake was tested for 3 min in the presence of methyl-D-glucose,3-O-[methyl-3H]. Subsequently cells were washed 3 times in cold PBS and solubilized in NaOH (0.05 mM). Aliquots were measured for radioactivity. Non-specific binding or diffusion were tested by addition of 300 mM glucose to the cells. This value was deducted from the total counts (on the average <20%) and results were normalized for protein concentration.
as §1, §2

The next series has as its system 293A cells. The series is described as follows: Insulin-mediated glucose uptake (2DG) in 293A cells. The note with it: insulin 15 min, 2DG 15 min, vs controls infected with vector alone, p≦0.05. It counts as cell-based, human. On the procedure: FIG. 12A-D illustrates that “knock-down” BVR and Y^198 detection increased glucose uptake into 293A cells upon insulin induction. As shown in the graph of FIG. 12A, insulin treatment increases BVR activity. 293A cells were treated with insulin (50 nM) and subsequently used at indicated time points for BVR activity measurement. […] Purified BVR was phosphorylated by IRK for the indicated periods. Reactions were terminated by diluting with PBS and freezing at −20° C. BVR activity was determined as in FIG. 12A, and normalized to that of the control (43.8 μmol per min per mg). […] 293A cells were incubated with insulin and after 8 min or 30 min, subjected to immunoprecipitation using anti-human BVR antibodies. The phosphorylated BVR was visualized by immunoblotting using anti-tyrosine antibodies. ECL system was used for visualization of phosphorylated BVR. […]
Glucose uptake was assessed by measuring 2-deoxy 1-[^3H] glucose (2DG) absorption as described by (Braiman et al. (Mol. Endocrinol. 13:2002-12 (1999)), which is hereby incorporated by reference), with minor modifications. […] Radioactivity was measured and data was normalized to protein concentration. Non-specific uptake was determined in the presence of 200 mM of glucose and was subtracted from the total uptake. […]

Series [4] has as its target T1, insulin receptor kinase (IRK) (Homo sapiens, UniProt P06213).
T1 construct: GST-hBVR fusion protein and the 48 kDa cytoplasmic domain of the β-subunit of IRK; purchased Biomol International (Plymouth, Pa.)
Kind of series: BVR phosphorylation by the insulin receptor tyrosine kinase (IRK). The note with it: tyrosine point mutant as IRK substrate, 2 h at 30° C. It counts as biochemical. On the procedure: FIGS. 7A-B illustrate BVR as a substrate for insulin receptor kinase. […] 10 μg purified wtBVR was incubated in 100 μl kinase assay buffer (pH 8.0) containing 0.1 μg IRK, 10 μM ATP, and 20 μCi [^32P]-ATP at 25° C. up to 4 h. The reaction was terminated by the addition of Laemmli buffer at different points of time as indicated. Samples were separated using 8% SDS-PAGE gel and transferred onto PVDF filter, and phosphorylated protein bands were visualized by autoradiography. […] From left to right lane 1, wtBVR plus IRK in the presence of 50 mM EDTA (pH 8.0); lane 2, wtBVR plus IRK; lane 3, wtBVR in the absence of IRK. The reaction mixtures were subjected to SDS-PAGE electrophoresis and transferred onto a polyvinylidene fluoride (“PVDF”) filter. The blot was immuno-stained with anti-phosphotyrosine antibodies and ECL detection system was used to visualize phosphorylated tyrosines. […] In FIG. 8A the Y^198 residue of BVR is phosphorylated by IRK. Purified wtBVR and Y^198 mutant BVR were incubated with IRK at 30° C. for 2 h. Samples were subjected to SDS-PAGE electrophoresis and processed as described in FIG. 8B. FIG. 8B is a time course of Y^198 mutant BVR phosphorylation by IRK. A purified preparation of human BVR that carried Y^198 mutation was incubated with IRK for up to 3 h as described in FIG. 7A. Samples taken at the indicated time-points were analyzed for detection of phosphorylated proteins as above. […] Subsequently, samples were subjected to SDS-PAGE, stained with Coomassie blue and visualized bands were excised and used for measurement of radioactive content. The experiments were repeated three times. […] The indicated double mutants of BVR were used as substrates for IRK and analysis was carried out as in FIG. 8A. FIGS. 10A-B illustrate that autophosphorylation of BVR is an Mn^+2 dependant kinase reaction. […] The effects of different metal ions (30 mM MnCl2, 20 mM MgCl2, 20 mM CaCl2, 20 mM Zn acetate) and their combinations were analyzed as indicated in the text. […] The reactions were carried out in HEPES buffer (pH 8.0) in the presence of 20 mM MgCl2 as described in the Examples. Phosphorylation of BVR by IRK was examined using GST-hBVR fusion protein and the 48 kDa cytoplasmic domain of the β-subunit of IRK. BVR (5 μg) was incubated in 50 μl of IRK kinase buffer containing 50 mM HEPES (pH 8.0), 20 mM MgCl2, 1 mM DTT in the presence of 0.05 μg IRK and 10 μM ATP labeled with 10 μCi [γ-^32P]-ATP. The reaction was started with the addition of labeled ATP and incubated for 2-4 h. Reactions were terminated by addition of Laemmli sample buffer and boiled for 3 min. Samples were subjected to 8% SDS-PAGE and transferred to PVDF membranes for autoradiography.

The subject of another series is human BVR. Kind of series: BVR autophosphorylation. Format: biochemical. The note with it: pH 8.4, 30 mM MnCl2, 2 h at 30° C. On the procedure: In FIG. 9A, effect of tyrosine mutations of BVR on its autophosphorylation is shown. Human wtBVR and BVR with mutations in tyrosine were used in the experiment to determine autophosphorylation of BVR. The reactions were performed as described in the Examples. FIG. 9B is a graph showing that BVR tyrosine kinase activity was checked by incubating 5 μg purified BVR with 5 μg Raytide in 50 μl kinase buffer containing 10 μM labeled ATP for 2 h at 30° C. The aliquots of the reaction were transferred onto P81 Whatman filters and radioactivity due to phosphorylation was measured using a scintillation counter.
FIGS. 10A-B illustrate that autophosphorylation of BVR is an Mn^+2 dependant kinase reaction. […] The effects of different metal ions (30 mM MnCl2, 20 mM MgCl2, 20 mM CaCl2, 20 mM Zn acetate) and their combinations were analyzed as indicated in the text. […] Phosphorylation of wtBVR by IRK in the presence of tyrosine kinase inhibitor genestein (200 μM); DMSO was used as the vehicle for genestein and was included in the control reaction mixture. The reactions were carried out in HEPES buffer (pH 8.0) in the presence of 20 mM MgCl2 as described in the Examples.
To detect autophosphorylation of BVR, GST-hBVR of wild type (wt) and mutant variants were incubated in 50 mM HEPES buffer (pH 8.4) in the presence of 30 mM MnCl2 and 1 mM DTT for 2 h at 30° C. The reaction was started with the addition of 10 μM ATP labeled with 10 μCi [γ-^32P]-ATP and was stopped with the addition of Laemmli sample buffer. Samples were boiled for 3 min and applied to a 8% SDS-PAGE gels, transferred to a PVDF membrane, and then visualized by autoradiography. […] The reaction was started with the addition of ATP and terminated by adding 120 μl 10% H3PO4. 100 μl aliquots were directly transferred to P81 Whatman filters which were subsequently washed extensively in 0.75% phosphoric acid at room temperature. Finally, the filters were submerged in acetone for 5 min, dried, and retained counts were measured using a Beckman LS 6500 liquid scintillation counter (Beckman Coulter, Fullerton, Calif.).

T1 sequence (P06213 980-1382 limits assumed): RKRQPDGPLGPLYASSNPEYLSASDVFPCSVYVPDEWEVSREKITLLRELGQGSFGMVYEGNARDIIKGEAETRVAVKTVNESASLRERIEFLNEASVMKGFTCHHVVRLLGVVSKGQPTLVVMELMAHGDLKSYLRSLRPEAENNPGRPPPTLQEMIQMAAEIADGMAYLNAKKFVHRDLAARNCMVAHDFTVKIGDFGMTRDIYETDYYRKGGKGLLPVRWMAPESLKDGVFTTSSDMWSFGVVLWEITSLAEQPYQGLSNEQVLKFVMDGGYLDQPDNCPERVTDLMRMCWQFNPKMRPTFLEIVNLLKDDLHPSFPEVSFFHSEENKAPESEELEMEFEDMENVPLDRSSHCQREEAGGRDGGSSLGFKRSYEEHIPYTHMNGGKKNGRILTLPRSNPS

“GST-hBVR G17 mutant (GVGRA to GVARA), ATP binding domain mutant”: the “IRS phosphorylation by BVR (kinase assay)” value in series [1] is recorded as “G^17 mutation, for the most part, prevented IRS phosphorylation by BVR”.
As to “KRNRYLSF (Biliverdin reductase derived peptide) [hBVR peptide, amino acids 224-231 of BVR]”, the “insulin mediated cellular glucose uptake in HEK cells” value in series [2] is given as “antagonizing insulin mediated cellular glucose uptake”. Moreover, in series [3], the “IGF-mediated cellular glucose uptake in PAC1 cells” value is listed as “inhibit IGF-mediated cellular glucose uptake”.
For “siBVR: human BVR siRNA, target nt96-nt116, expressed from retroviral vector pSuper-Retro-siBVR (chain 1 UCCUCAGCGUUCCUGAACCUG; chain 2 AGGAGUCGCAAGGACUUGGAC)”, in the series on 293A cells, the “insulin-mediated glucose uptake by cells” value is “significantly increased insulin-mediated glucose uptake”.

B1: Y^198: human BVR point mutant DQYMK to DQFMK (protein, UniProt P53004 3-296, looked up, variant Y198F)
Biliverdin reductase A: AEPERKFGVVVVGVGRAGSVRMRDLRNPHPSSAFLNLIGFVSRRELGSIDGVQQISLEDALSSQEVEVAYICSESSSHEDYIRQFLNAGKHVLVEYPMTLSLAAAQELWELAEQKGKVLHEEHVELLMEEFAFLKKEVVGKDLLKGSLLFTAGPLEEERFGFPAFSGISRLTWLVSLFGELSLVSATLEERKEDQFMKMTVCLETEKKSPLSWIEEKGPGLKRNRYLSFHFKSGSLENVPNVGVNKNIFLKDQNIFVQKLLGQFSEKELAAEKKRILHCLGLAEEIQKYCCSRK
For the molecule B1, the “reduction of extent of BVR phosphorylation by IRK compared with wtBVR” value in series [4] is listed as roughly 70%. In addition, the “autophosphorylation of BVR (mutants)” value in the series with human BVR is “did not result in significant changes in autophosphorylation of BVR”. Further, the “insulin-mediated glucose uptake by cells” value in the series with 293A cells was “increased significantly”.

Source of the values: patent publication US20130344053A1, “Methods of Modifying Insulin Signaling Using Biliverdin Reductase (BVR) and BVR Derived Peptides” (University of Rochester, priority 2010, published 2013).
